In patent US10272135B2, “Apolipoprotein O and fragments thereof for inducing apoptosis in a cancerous cell” (INSERM (INSTITUT NATIONAL DE LA SANTÉ ET DE LA RECHERCHE …, priority 2014, dated 2019):

Key:
[1] = tested on: fatty acid transporter (CD36 and FATP4); assay: Real-time PCR of fatty acid transporter expression in cardiac myoblasts; type: cell-based; conditions: ApoO cells vs control (FIG. 6A-B)
Source text: After ethical committee approval, all patients in this study gave written consent for sample collection and molecular analysis prior to inclusion. Patients were carefully selected by physicians from the Department of Cardiology, Toulouse University Hospital, prior to coronary by-pass surgery. Bioinformatics. Microarray expression data from human heart samples were downloaded from the GEO repository (GSE1145). This series consisted of 107 myocardial samples collected from patients undergoing cardiac transplantation whose failure arises from different etiologies (e.g. idiopathic dilated cardiomyopathy, ischemic cardiomyopathy, valvular cardiomyopathy, and hypertrophic cardiomyopathy) and from “normal” organ donors whose hearts cannot be used for transplants. Arrays were intensity normalized and hierarchical clustering (average group linkage, Pearson correlation, threshold r=0.8) was applied to identify groups of co-expressed genes. […] All ApoO sequences within the expression vectors were verified by DNA double strand sequencing using ABI PRISM®BigDye™ Terminator version 3.1 Ready reaction cycle sequencing kit (Life Technologies SAS, Villebon sur Yvette) and loaded on an ABI 3130XL DNA sequencing instrument (Life Technologies SAS, Villebon sur Yvette). […]

mouse heart = assay: Cardiac specific human ApoO transgenic mice (ApoO-Tg); type: in vivo
Source text: After ethical committee approval, all patients in this study gave written consent for sample collection and molecular analysis prior to inclusion. Patients were carefully selected by physicians from the Department of Cardiology, Toulouse University Hospital, prior to coronary by-pass surgery. Bioinformatics. Microarray expression data from human heart samples were downloaded from the GEO repository (GSE1145). This series consisted of 107 myocardial samples collected from patients undergoing cardiac transplantation whose failure arises from different etiologies (e.g. idiopathic dilated cardiomyopathy, ischemic cardiomyopathy, valvular cardiomyopathy, and hypertrophic cardiomyopathy) and from “normal” organ donors whose hearts cannot be used for transplants. Arrays were intensity normalized and hierarchical clustering (average group linkage, Pearson correlation, threshold r=0.8) was applied to identify groups of co-expressed genes. ApoO expression levels were plotted for the 107 human hearts tested and used to define relevant molecular pathways using both Toppgene and Ingenuity Pathway Analysis (Ingenuity systems, Redwood City, Calif., USA). ApoO subcellular localization was predicted using Mitopred, mitoprot and YLoc. Animals: All animal Studies followed the INSERM Institute Animal Facility guidelines and were approved by the animal care committees of the INSERM I2MC UMR 1048. All animal procedures were performed according to the guidelines of the French Ministry of Agriculture. Animals were housed at the Toulouse I2MC animal facility in a room lit 12 h per day (6 AM-6 PM) at an ambient temperature of 22+/−1° C. Construction of ApoO Expression Vectors To overexpress human ApoO (pTT-ApoO), the ApoO coding sequence was amplified using primers hApoO5BamPTT (SEQ ID NO: 2) and hApoO3BamPTT (SEQ ID NO: 3) and cloned into the BamH1 site of pTT expression vector. pSNAP-ApoO was generated by PCR amplification of pTT-ApoO using primers SnapApoEcorV-F (SEQ ID NO: 4) and SnapApoEcorV-R (SEQ ID NO: 5) and cloned into the EcoRV site of pSNAP-Tag® (Ozyme, Saint-Quentin-en-Yvelines, France). pGEX2T-ApoO was constructed by PCR amplification of pTT-ApoO using hApoOpGEX1FBam (SEQ ID NO: 6) and hApoOpGEX1RSma (SEQ ID NO: 7) and cloned into the Bam HI/Sma I site of pGEX2T (Promega, Charbonnières-les-Bains). All primers used in this work were synthesized by Eurogentec France (Angers). All restriction enzymes used were from New England Biolabs (Ozyme, Saint-Quentin-en-Yvelines). All ApoO sequences within the expression vectors were verified by DNA double strand sequencing using ABI PRISM®BigDye™ Terminator version 3.1 Ready reaction cycle sequencing kit (Life Technologies SAS, Villebon sur Yvette) and loaded on an ABI 3130XL DNA sequencing instrument (Life Technologies SAS, Villebon sur Yvette). Cell Culture and Tranfection of H9C2 Cardic Myoblasts H9c2 were obtained from the European Collection of Cell Cultures (Salisbury, England). H9c2 cells were cultured in Dulbecco's modified Eagle medium (Life Technologies SAS, Villebon sur Yvette) adjusted to contain 1.5 g/liter sodium bicarbonate and supplemented with antibiotic-antimycotic solution (Life Technologies SAS, Villebon sur Yvette) and 10% fetal bovine serum (FBS, AbCys s.a., Paris). Cells were plated on 10-cm diameter tissue culture dish and grown in a 5% CO2 incubator at 37° C. with saturating humidity with medium changes every 2 days. H9c2 cardiomyoblasts were stably transfected by electroporation and pools of tranfectants were selected as previously published. Knock-Down of ApoO Overexpression shRNA used to knock-down ApoO gene expression and controls were from MISSION shRNA set; Sh2=TRCN 72707; Sh4=TRCN 72704; Sh5=TRCN 72705 (Sigma Aldrich, Saint-Quentin Fallavier) and used as recommended by generating pools of stable transfectants. Empty vector (no shRNA insert) control was also transfected and had no significant effect. […]

B1: ApoO: 198-amino acid apolipoprotein, SEQ ID NO: 1; tested by overexpression from expression vectors or transgene (protein, listed as Homo sapiens)
chain: MFKVIQRSVGPASLSLLTFKVYAAPKKDSPPKNSVKVDELSLYSVPEGQSKYVEEARSQLEESISQLRHYCEPYTTWCQETYSQTKPKMQSLVQWGLDSYDYLQNAPPGFFPRLGVIGFAGLIGLLLARGSKIKKLVYPPGFMGLAASLYYPQQAIVFAQVSGERLYDWGLRGYIVIEDLWKENFQKPGNVKNSPGTK
- fatty acid transporter (CD36 and FATP4) expression [1]: strongly increased
- cytochrome C oxidase activity in heart (mouse heart; ApoO-Tg hearts): increase
- diglyceride levels in heart (mouse heart; ApoO-Tg vs WT (FIG. 8a)): increased
- intracellular triglycerides in heart (mouse heart; ApoO-Tg vs WT (FIG. 8b)): did not significantly modify
- Bax expression in heart (mouse heart; ApoO-Tg vs WT (FIG. 9b)): enhanced
- Caspase-3 activity in heart (mouse heart; ApoO-Tg vs WT (FIG. 9c)): enhanced
- ACSL activity in heart (mouse heart; hearts from ApoO-Tg mice): significant increase
- fatty acid transporter expression in heart (mouse heart; hearts from ApoO-Tg mice): significant increase
- calcium retention capacity (mouse heart; mitochondria isolated from ApoO-Tg mice hearts): significantly diminished
